# Assay results published in patent US20140087995A1 (published 2014).
# Numbered stars: 1 amine (or outer) side, 2 acyl side, 3 side chain; on linkers, the order of the positions; unused ones are H or OH. Bridge positions count the residues as written; N and C are the ends. Side chains are listed from the residue outwards. Ends that are not written are not given here. * marks the point of attachment. C20 diacid = O=C(O)CCCCCCCCCCCCCCCCCCC(=O)*; γGlu = O=C(O)[C@H](CCC(=O)[*:2])N[*:1]; AEEA = NCCOCCOCC(=O)O
# T1: human calcitonin receptor (human, UniProt P30988 25-474)
# T1 sequence (looked up): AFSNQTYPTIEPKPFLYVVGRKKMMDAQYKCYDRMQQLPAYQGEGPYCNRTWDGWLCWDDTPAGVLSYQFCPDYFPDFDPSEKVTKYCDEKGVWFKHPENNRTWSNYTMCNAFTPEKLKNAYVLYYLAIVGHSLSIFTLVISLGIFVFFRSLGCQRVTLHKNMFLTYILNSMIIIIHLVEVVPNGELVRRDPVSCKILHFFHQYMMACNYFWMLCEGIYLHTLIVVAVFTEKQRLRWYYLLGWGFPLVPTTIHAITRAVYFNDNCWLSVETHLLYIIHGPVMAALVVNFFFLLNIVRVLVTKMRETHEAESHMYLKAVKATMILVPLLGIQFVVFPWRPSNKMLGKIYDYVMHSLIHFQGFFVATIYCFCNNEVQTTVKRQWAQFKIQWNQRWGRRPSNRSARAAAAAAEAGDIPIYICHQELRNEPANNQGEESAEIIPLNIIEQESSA
# B1: N^ε1-[(4S)-4-carboxy-4-(19-carboxynonadecanoylamino)butanoyl]-[His14,Arg17,Pro21,Pro27]-h-amylin (peptide)
# peptide: K([γGlu-C20 diacid])CNTATCATQRLAHFLRHSSPNFGAIPSSTNVGSNTY-NH2
# modifications: disulfide 2-7; N-terminus assumed
# SMILES: CC[C@H](C)[C@H](NC(=O)[C@H](C)NC(=O)CNC(=O)[C@H](Cc1ccccc1)NC(=O)[C@H](CC(N)=O)NC(=O)[C@@H]1CCCN1C(=O)[C@H](CO)NC(=O)[C@H](CO)NC(=O)[C@H](Cc1c[nH]cn1)NC(=O)[C@H](CCCNC(=N)N)NC(=O)[C@H](CC(C)C)NC(=O)[C@H](Cc1ccccc1)NC(=O)[C@H](Cc1c[nH]cn1)NC(=O)[C@H](C)NC(=O)[C@H](CC(C)C)NC(=O)[C@H](CCCNC(=N)N)NC(=O)[C@H](CCC(N)=O)NC(=O)[C@@H](NC(=O)[C@H](C)NC(=O)[C@@H]1CSSC[C@H](NC(=O)[C@@H](N)CCCCNC(=O)CC[C@H](NC(=O)CCCCCCCCCCCCCCCCCCC(=O)O)C(=O)O)C(=O)N[C@@H](CC(N)=O)C(=O)N[C@@H]([C@@H](C)O)C(=O)N[C@@H](C)C(=O)N[C@@H]([C@@H](C)O)C(=O)N1)[C@@H](C)O)C(=O)N1CCC[C@H]1C(=O)N[C@@H](CO)C(=O)N[C@@H](CO)C(=O)N[C@H](C(=O)N[C@@H](CC(N)=O)C(=O)N[C@H](C(=O)NCC(=O)N[C@@H](CO)C(=O)N[C@@H](CC(N)=O)C(=O)N[C@H](C(=O)N[C@@H](Cc1ccc(O)cc1)C(N)=O)[C@@H](C)O)C(C)C)[C@@H](C)O
# notes: also called compound 70
# B2: N^ε1-[2-[2-[2-(19-carboxynonadecanoylamino)ethoxy]ethoxy]acetyl]-[His14,Arg17,Pro21,Pro27]-h-amylin (peptide)
# peptide: K([AEEA-C20 diacid])CNTATCATQRLAHFLRHSSPNFGAIPSSTNVGSNTY-NH2
# modifications: disulfide 2-7; N-terminus assumed
# SMILES: CC[C@H](C)[C@H](NC(=O)[C@H](C)NC(=O)CNC(=O)[C@H](Cc1ccccc1)NC(=O)[C@H](CC(N)=O)NC(=O)[C@@H]1CCCN1C(=O)[C@H](CO)NC(=O)[C@H](CO)NC(=O)[C@H](Cc1c[nH]cn1)NC(=O)[C@H](CCCNC(=N)N)NC(=O)[C@H](CC(C)C)NC(=O)[C@H](Cc1ccccc1)NC(=O)[C@H](Cc1c[nH]cn1)NC(=O)[C@H](C)NC(=O)[C@H](CC(C)C)NC(=O)[C@H](CCCNC(=N)N)NC(=O)[C@H](CCC(N)=O)NC(=O)[C@@H](NC(=O)[C@H](C)NC(=O)[C@@H]1CSSC[C@H](NC(=O)[C@@H](N)CCCCNC(=O)COCCOCCNC(=O)CCCCCCCCCCCCCCCCCCC(=O)O)C(=O)N[C@@H](CC(N)=O)C(=O)N[C@@H]([C@@H](C)O)C(=O)N[C@@H](C)C(=O)N[C@@H]([C@@H](C)O)C(=O)N1)[C@@H](C)O)C(=O)N1CCC[C@H]1C(=O)N[C@@H](CO)C(=O)N[C@@H](CO)C(=O)N[C@H](C(=O)N[C@@H](CC(N)=O)C(=O)N[C@H](C(=O)NCC(=O)N[C@@H](CO)C(=O)N[C@@H](CC(N)=O)C(=O)N[C@H](C(=O)N[C@@H](Cc1ccc(O)cc1)C(N)=O)[C@@H](C)O)C(C)C)[C@@H](C)O
# notes: also called compound 90
# B3: N^ε1-[(4S)-4-carboxy-4-[[(4S)-4-carboxy-4-(19-carboxynonadecanoylamino)butanoyl]amino]butanoyl]-[Glu14,Arg17,Pro21,Pro27,Arg34]-h-amylin (peptide)
# peptide: K([γGlu-γGlu-C20 diacid])CNTATCATQRLAEFLRHSSPNFGAIPSSTNVGRNTY-NH2
# modifications: disulfide 2-7; N-terminus assumed
# SMILES: CC[C@H](C)[C@H](NC(=O)[C@H](C)NC(=O)CNC(=O)[C@H](Cc1ccccc1)NC(=O)[C@H](CC(N)=O)NC(=O)[C@@H]1CCCN1C(=O)[C@H](CO)NC(=O)[C@H](CO)NC(=O)[C@H](Cc1c[nH]cn1)NC(=O)[C@H](CCCNC(=N)N)NC(=O)[C@H](CC(C)C)NC(=O)[C@H](Cc1ccccc1)NC(=O)[C@H](CCC(=O)O)NC(=O)[C@H](C)NC(=O)[C@H](CC(C)C)NC(=O)[C@H](CCCNC(=N)N)NC(=O)[C@H](CCC(N)=O)NC(=O)[C@@H](NC(=O)[C@H](C)NC(=O)[C@@H]1CSSC[C@H](NC(=O)[C@@H](N)CCCCNC(=O)CC[C@H](NC(=O)CC[C@H](NC(=O)CCCCCCCCCCCCCCCCCCC(=O)O)C(=O)O)C(=O)O)C(=O)N[C@@H](CC(N)=O)C(=O)N[C@@H]([C@@H](C)O)C(=O)N[C@@H](C)C(=O)N[C@@H]([C@@H](C)O)C(=O)N1)[C@@H](C)O)C(=O)N1CCC[C@H]1C(=O)N[C@@H](CO)C(=O)N[C@@H](CO)C(=O)N[C@H](C(=O)N[C@@H](CC(N)=O)C(=O)N[C@H](C(=O)NCC(=O)N[C@@H](CCCNC(=N)N)C(=O)N[C@@H](CC(N)=O)C(=O)N[C@H](C(=O)N[C@@H](Cc1ccc(O)cc1)C(N)=O)[C@@H](C)O)C(C)C)[C@@H](C)O
# notes: also called compound 88
# B4: N^ε1N^ε1-[(4S)-4-carboxy-4-(19-carboxynonadecanoylamino)butanoyl]-[His14,Arg17,Pro21,Pro27,Pro34]-h-amylin (peptide)
# peptide: K([γGlu-C20 diacid])CNTATCATQRLAHFLRHSSPNFGAIPSSTNVGPNTY-NH2
# modifications: disulfide 2-7; N-terminus assumed
# SMILES: CC[C@H](C)[C@H](NC(=O)[C@H](C)NC(=O)CNC(=O)[C@H](Cc1ccccc1)NC(=O)[C@H](CC(N)=O)NC(=O)[C@@H]1CCCN1C(=O)[C@H](CO)NC(=O)[C@H](CO)NC(=O)[C@H](Cc1c[nH]cn1)NC(=O)[C@H](CCCNC(=N)N)NC(=O)[C@H](CC(C)C)NC(=O)[C@H](Cc1ccccc1)NC(=O)[C@H](Cc1c[nH]cn1)NC(=O)[C@H](C)NC(=O)[C@H](CC(C)C)NC(=O)[C@H](CCCNC(=N)N)NC(=O)[C@H](CCC(N)=O)NC(=O)[C@@H](NC(=O)[C@H](C)NC(=O)[C@@H]1CSSC[C@H](NC(=O)[C@@H](N)CCCCNC(=O)CC[C@H](NC(=O)CCCCCCCCCCCCCCCCCCC(=O)O)C(=O)O)C(=O)N[C@@H](CC(N)=O)C(=O)N[C@@H]([C@@H](C)O)C(=O)N[C@@H](C)C(=O)N[C@@H]([C@@H](C)O)C(=O)N1)[C@@H](C)O)C(=O)N1CCC[C@H]1C(=O)N[C@@H](CO)C(=O)N[C@@H](CO)C(=O)N[C@H](C(=O)N[C@@H](CC(N)=O)C(=O)N[C@H](C(=O)NCC(=O)N1CCC[C@H]1C(=O)N[C@@H](CC(N)=O)C(=O)N[C@H](C(=O)N[C@@H](Cc1ccc(O)cc1)C(N)=O)[C@@H](C)O)C(C)C)[C@@H](C)O
# notes: also called compound 67
# B5: N^ε1-[(4S)-4-carboxy-4-[[(4S)-4-carboxy-4-(19-carboxynonadecanoylamino)butanoyl]amino]butanoyl]-[Glu14,Arg17,Pro21,Pro27,Arg35]-h-amylin (peptide)
# peptide: K([γGlu-γGlu-C20 diacid])CNTATCATQRLAEFLRHSSPNFGAIPSSTNVGSRTY-NH2
# modifications: disulfide 2-7; N-terminus assumed
# SMILES: CC[C@H](C)[C@H](NC(=O)[C@H](C)NC(=O)CNC(=O)[C@H](Cc1ccccc1)NC(=O)[C@H](CC(N)=O)NC(=O)[C@@H]1CCCN1C(=O)[C@H](CO)NC(=O)[C@H](CO)NC(=O)[C@H](Cc1c[nH]cn1)NC(=O)[C@H](CCCNC(=N)N)NC(=O)[C@H](CC(C)C)NC(=O)[C@H](Cc1ccccc1)NC(=O)[C@H](CCC(=O)O)NC(=O)[C@H](C)NC(=O)[C@H](CC(C)C)NC(=O)[C@H](CCCNC(=N)N)NC(=O)[C@H](CCC(N)=O)NC(=O)[C@@H](NC(=O)[C@H](C)NC(=O)[C@@H]1CSSC[C@H](NC(=O)[C@@H](N)CCCCNC(=O)CC[C@H](NC(=O)CC[C@H](NC(=O)CCCCCCCCCCCCCCCCCCC(=O)O)C(=O)O)C(=O)O)C(=O)N[C@@H](CC(N)=O)C(=O)N[C@@H]([C@@H](C)O)C(=O)N[C@@H](C)C(=O)N[C@@H]([C@@H](C)O)C(=O)N1)[C@@H](C)O)C(=O)N1CCC[C@H]1C(=O)N[C@@H](CO)C(=O)N[C@@H](CO)C(=O)N[C@H](C(=O)N[C@@H](CC(N)=O)C(=O)N[C@H](C(=O)NCC(=O)N[C@@H](CO)C(=O)N[C@@H](CCCNC(=N)N)C(=O)N[C@H](C(=O)N[C@@H](Cc1ccc(O)cc1)C(N)=O)[C@@H](C)O)C(C)C)[C@@H](C)O
# notes: also called compound 89
# B6: N^ε1-[(4S)-4-carboxy-4-[[(4S)-4-carboxy-4-(19-carboxynonadecanoylamino)butanoyl]amino]butanoyl]-[His14,Arg17,Pro21,Pro27]-h-amylin (peptide)
# peptide: K([γGlu-γGlu-C20 diacid])CNTATCATQRLAHFLRHSSPNFGAIPSSTNVGSNTY-NH2
# modifications: disulfide 2-7; N-terminus assumed
# SMILES: CC[C@H](C)[C@H](NC(=O)[C@H](C)NC(=O)CNC(=O)[C@H](Cc1ccccc1)NC(=O)[C@H](CC(N)=O)NC(=O)[C@@H]1CCCN1C(=O)[C@H](CO)NC(=O)[C@H](CO)NC(=O)[C@H](Cc1c[nH]cn1)NC(=O)[C@H](CCCNC(=N)N)NC(=O)[C@H](CC(C)C)NC(=O)[C@H](Cc1ccccc1)NC(=O)[C@H](Cc1c[nH]cn1)NC(=O)[C@H](C)NC(=O)[C@H](CC(C)C)NC(=O)[C@H](CCCNC(=N)N)NC(=O)[C@H](CCC(N)=O)NC(=O)[C@@H](NC(=O)[C@H](C)NC(=O)[C@@H]1CSSC[C@H](NC(=O)[C@@H](N)CCCCNC(=O)CC[C@H](NC(=O)CC[C@H](NC(=O)CCCCCCCCCCCCCCCCCCC(=O)O)C(=O)O)C(=O)O)C(=O)N[C@@H](CC(N)=O)C(=O)N[C@@H]([C@@H](C)O)C(=O)N[C@@H](C)C(=O)N[C@@H]([C@@H](C)O)C(=O)N1)[C@@H](C)O)C(=O)N1CCC[C@H]1C(=O)N[C@@H](CO)C(=O)N[C@@H](CO)C(=O)N[C@H](C(=O)N[C@@H](CC(N)=O)C(=O)N[C@H](C(=O)NCC(=O)N[C@@H](CO)C(=O)N[C@@H](CC(N)=O)C(=O)N[C@H](C(=O)N[C@@H](Cc1ccc(O)cc1)C(N)=O)[C@@H](C)O)C(C)C)[C@@H](C)O
# notes: also called compound 92
# Target: T1, human calcitonin receptor
# Assay: cell-based or functional assay
row,hCTR funct. EC50,Binder
1,0.715 nM,B1
2,0.236 nM,B2
3,6.55 nM,B3
4,0.354 nM,B4
5,11.2 nM,B5
6,2.38 nM,B6
